Reference: patent US12318454
Numbered stars: 1 amine (or outer) side, 2 acyl side, 3 side chain; on linkers, the order of the positions; unused ones are H or OH. Bridge positions count the residues as written; N and C are the ends. Square brackets hold non-standard residues; d marks the D form. Ends that are not written are not given here. * marks the point of attachment. DM4 = maytansinoid, two hindering methyls on maytansine side, COc1cc2cc(c1Cl)N(C)C(=O)C[C@H](OC(=O)[C@H](C)N(C)C(=O)CCC(C)(C)S*)[C@]1(C)O[C@H]1[C@H](C)[C@@H]1C[C@@](O)(NC(=O)O1)[C@H](OC)/C=C/C=C(\C)C2; DM3 = maytansinoid, one hindering methyl on maytansine side, COc1cc2cc(c1Cl)N(C)C(=O)C[C@H](OC(=O)[C@H](C)N(C)C(=O)CCC(C)S*)[C@]1(C)O[C@H]1[C@H](C)[C@@H]1C[C@@](O)(NC(=O)O1)[C@H](OC)/C=C/C=C(\C)C2; disulfide linker, one methyl on bicycle side = not defined here; fluorescein = fluorescein label on the Lys side chain; unhindered disulfide linker = not defined here; 1Nal = N[C@@H](Cc1cccc2ccccc12)C(=O)O; TBMB = c1c(C[*:1])cc(C[*:3])cc1C[*:2]; disulfide linker = not defined here; Tle = CC(C)(C)[C@H](N)C(=O)O; DM1 = maytansinoid; βAla = NCCC(=O)O; Sar = CNCC(=O)O

Columns and labels:
[1] = target: dog MT1-MMP hemopexin domain (dog); assay: FP competition, dog MT1-MMP hemopexin domain
[2] = target: human MT1-MMP hemopexin domain (residues Cys319-Gly511, N-terminally His6-tagged soluble protein) (human) (UniProt P50281); assay: FP competition, Human/cyno MT1-MMP hemopexin domain
[3] = target: human MT1-MMP hemopexin domain (residues Cys319-Gly511, N-terminally His6-tagged soluble protein) (human) (UniProt P50281); assay: FP competition on human MT1-MMP hemopexin domain (per paragraph 249; tracer not given)
[4] = target: human MT1-MMP hemopexin domain (residues Cys319-Gly511, N-terminally His6-tagged soluble protein) (human) (UniProt P50281); assay: FP competition on human MT1-MMP hemopexin domain (footnote a: tracer 17-69-07-N040; footnote e: 17-69-07-N004)
[5] = target: human MT1-MMP hemopexin domain (residues Cys319-Gly511, N-terminally His6-tagged soluble protein) (human) (UniProt P50281); assay: FP competition on human MT1-MMP hemopexin domain, tracer 17-69-07-N040 (footnote f)
[6] = target: human MT1-MMP hemopexin domain (residues Cys319-Gly511, N-terminally His6-tagged soluble protein) (human) (UniProt P50281); assay: fluorescence polarisation with the fluoresceinated peptide

H-G[Sar][Sar][Sar][Sar][Sar][Sar][Sar][Sar][Sar][Sar]ACYNEFGCEDFYDIC (linker 13-19-26 via TBMB; not fully specified (C-terminus)) [17-69-07-N219] showed a Kd [1] of 900 pM, a Kd [2] of 820 pM and a Kd [3] of 820 pM. The Kd [4] was 820 pM.

B1: BT17BDC-17 (peptide)
peptide: {DM1-unhindered disulfide linker}-[βAla][Sar][Sar][Sar][Sar][Sar][Sar][Sar][Sar][Sar][Sar]AC[dA]NE[1Nal][dA]CEDFYD[Tle]C
modifications: linker 13-19-26 via TBMB; reading uncertain; also: exact linker structure not given here
Binder B1 has a Kd [4] of 700 pM.

B2: BT17BDC-18 (peptide)
peptide: {DM1-disulfide linker, one methyl on bicycle side}-[βAla][Sar][Sar][Sar][Sar][Sar][Sar][Sar][Sar][Sar][Sar]AC[dA]NE[1Nal][dA]CEDFYD[Tle]C
modifications: linker 13-19-26 via TBMB; reading uncertain; also: exact linker structure not given here
In the case of B2, the Kd [4] is reported as 990 pM.

B3: BT17BDC-19 (peptide)
peptide: {DM4-disulfide linker}-[βAla][Sar][Sar][Sar][Sar][Sar][Sar][Sar][Sar][Sar][Sar]AC[dA]NE[1Nal][dA]CEDFYD[Tle]C
modifications: linker 13-19-26 via TBMB; reading uncertain; also: exact linker structure not given here
B3 was tested, and the Kd [4] was 500 pM.

B4: BT17BDC-20 (peptide)
peptide: {DM3-disulfide linker, one methyl on bicycle side}-[βAla][Sar][Sar][Sar][Sar][Sar][Sar][Sar][Sar][Sar][Sar]AC[dA]NE[1Nal][dA]CEDFYD[Tle]C
modifications: linker 13-19-26 via TBMB; reading uncertain; also: exact linker structure not given here
For B4, the Kd [5] was 2950 pM.

Ac-G[Sar][Sar][Sar][Sar][Sar][Sar][Sar][Sar][Sar][Sar]ACYNEFGCEDFYDIC (linker 13-19-26 via TBMB; not fully specified (C-terminus)) [17-69-07-N225] was tested, and the Kd [3] was 950 pM.

B5: 17-69-07-N258 (peptide)
peptide: fluorescein-[βAla][Sar][Sar][Sar][Sar][Sar][Sar][Sar][Sar][Sar][Sar]AC[dA]NE[1Nal][dA]CEDFYD[Tle]C
modifications: linker 13-19-26 via TBMB; not fully specified (C-terminus); printed as Fluorescein-(bAla)-Sar10-A-(17-69-07) D-Ala1 1Nal4 D-Ala5 tBuGlyl1
B5 was tested, and the Kd [6] was 2200 pM.
